The values that follow are results of earlier work, collected in patent US20030175848A1, “Substituted dithiobisnitrobenzenes and their applications” (Institut Pasteur De Lille, priority 1998, published 2003).

In general, Km refers to the substrate concentration at which the rate is half of its maximum.

The series concerns the target T1, human thioredoxin reductase (hTrxR) (Homo sapiens, UniProt Q16881).
T1 construct: U of native hTrxR; from tissue; host or cells: human placenta
T1 sequence (Q16881 151-649 limits assumed): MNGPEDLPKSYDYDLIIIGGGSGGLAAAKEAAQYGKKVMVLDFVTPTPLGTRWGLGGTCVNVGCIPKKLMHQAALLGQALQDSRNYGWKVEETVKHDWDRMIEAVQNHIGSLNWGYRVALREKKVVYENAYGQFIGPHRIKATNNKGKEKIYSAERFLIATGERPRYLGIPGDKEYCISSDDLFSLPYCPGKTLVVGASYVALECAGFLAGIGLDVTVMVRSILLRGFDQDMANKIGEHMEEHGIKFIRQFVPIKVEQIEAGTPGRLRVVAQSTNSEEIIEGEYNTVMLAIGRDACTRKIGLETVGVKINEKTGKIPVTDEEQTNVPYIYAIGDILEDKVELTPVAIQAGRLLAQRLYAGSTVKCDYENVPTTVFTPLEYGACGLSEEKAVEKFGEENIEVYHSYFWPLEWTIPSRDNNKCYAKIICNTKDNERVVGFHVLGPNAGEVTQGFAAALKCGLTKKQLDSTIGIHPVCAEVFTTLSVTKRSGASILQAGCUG
Particulars: substrate of native hTrxR (placenta); references [29], [38].

B1: HTrx: human thioredoxin, physiological substrate of hTrxR (protein, UniProt P10599 2-105, looked up)
Thioredoxin: VKQIESKTAFQEALDAAGDKLVVVDFSATWCGPCKMIKPFFHSLSEKYSNVIFLEVDVDDCQDVASECEVKCMPTFQFFKKGQKVGEFSGANKEKLEATINELV
As to B1, the Km was 4.3 µM.
